Key:
P15381 = test: FRET or BRET; living tsA-201 cells expressing CaV1.2-EGFP (donor) and CaV1.2-tagRFP (acceptor), confocal; FRETr = RFPg/GFPg; followed during flash photolysis of caged Ca2+ at −80 mV, during a 500-ms depolarization from −80 to +10 mV (10 mM EGTA in the pipette), and at 0-5000 nM Ca2+ with 1 μM …
[1] = target: CaV1.2 channel pore-forming subunit (α1c) tagged at its C-terminus with a half of split Venus (CaV1.2-VN155(I152L) and CaV1.2-VC155) (rabbit) (UniProt P15381)

Substance | time for FRETr to decay to 50% of the peak (T50%), with m5 (P15381) [s for FRETr] | CaV1.2 sparklet density after against before the depolarization that fuses CaV1.2-VN and CaV1.2-VC [1] [fold]
CaV1.2 channel pore-forming subunit (α1c) tagged at its C-terminus with EGFP or tagRFP (CaV1.2-EGFP and CaV1.2-tagRFP) | 0.63 ± 0.23 | 
CaV1.2 channel pore-forming subunit (α1c) tagged at its C-terminus with a half of split Venus (CaV1.2-VN155(I152L) and CaV1.2-VC155) (from UniProt P15381 1-2171) (natural protein) |  | 10

From paper PMC4360655
